US20220056517A1 (OXFORD NANOPORE TECHNOLOGIES, published 2022)

Legend:
[1] = target: T1, CsgG Y51A/F56A/N91R/K94Q/R97W-del(V105-I107) pore containing the C terminal strep tag (E. coli, UniProt P0AEA2 16-277); test: pore 4; in vitro reconstitution; DNA translocation, signal:noise
T1 construct: not shown: C-terminal Strep tag
T1 chain: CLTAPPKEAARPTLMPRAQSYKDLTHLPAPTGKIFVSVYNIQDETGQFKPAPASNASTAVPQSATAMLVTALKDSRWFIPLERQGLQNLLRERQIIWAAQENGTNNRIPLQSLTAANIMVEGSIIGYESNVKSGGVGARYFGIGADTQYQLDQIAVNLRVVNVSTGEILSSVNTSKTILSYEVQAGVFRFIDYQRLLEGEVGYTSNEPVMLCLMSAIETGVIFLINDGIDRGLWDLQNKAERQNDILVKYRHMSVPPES

[2] = target: T2, CsgG Y51S/N55V/F56Q/N91R/K94Q/R97W-del(V105-I107) pore containing the C terminal strep tag (E. coli, UniProt P0AEA2 16-277); test: pore 8; in vitro reconstitution; DNA translocation, signal:noise
T2 construct: also called Y515/N55V/F56Q/N91R/K94Q/R97W-del(V105-I107) (sic); not shown: C-terminal Strep tag
T2 chain: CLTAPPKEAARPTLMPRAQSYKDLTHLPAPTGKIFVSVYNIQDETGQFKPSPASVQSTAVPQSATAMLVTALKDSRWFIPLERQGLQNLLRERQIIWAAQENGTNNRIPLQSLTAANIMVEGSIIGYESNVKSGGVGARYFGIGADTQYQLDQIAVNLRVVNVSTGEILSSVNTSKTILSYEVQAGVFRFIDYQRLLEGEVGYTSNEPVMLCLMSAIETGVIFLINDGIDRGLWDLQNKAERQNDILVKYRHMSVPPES

[3] = target: T3, CsgG Y51A/N55I/F56Q/N91R/K94Q/R97W-del(V105-I107) pore containing the C terminal strep tag (E. coli, UniProt P0AEA2 16-277); test: pore 2; in vitro reconstitution; DNA translocation, signal:noise
T3 construct: also called Y51A/N551/F56Q/N91R/K94Q/R97W-del(V105-I107) (sic); not shown: C-terminal Strep tag
T3 chain: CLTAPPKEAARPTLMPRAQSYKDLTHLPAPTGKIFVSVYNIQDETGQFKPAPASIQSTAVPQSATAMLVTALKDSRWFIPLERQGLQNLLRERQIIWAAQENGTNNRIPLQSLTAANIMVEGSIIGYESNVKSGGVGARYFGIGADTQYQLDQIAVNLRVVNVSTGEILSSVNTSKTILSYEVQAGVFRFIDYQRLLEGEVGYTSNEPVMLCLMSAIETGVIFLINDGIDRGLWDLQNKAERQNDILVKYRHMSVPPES

[4] = target: T4, CsgG Y51T/N55V/F56Q/N91R/K94Q/R97W-del(V105-I107) pore containing the C terminal strep tag (E. coli, UniProt P0AEA2 16-277); test: pore 9; in vitro reconstitution; DNA translocation, signal:noise
T4 construct: not shown: C-terminal Strep tag
T4 chain: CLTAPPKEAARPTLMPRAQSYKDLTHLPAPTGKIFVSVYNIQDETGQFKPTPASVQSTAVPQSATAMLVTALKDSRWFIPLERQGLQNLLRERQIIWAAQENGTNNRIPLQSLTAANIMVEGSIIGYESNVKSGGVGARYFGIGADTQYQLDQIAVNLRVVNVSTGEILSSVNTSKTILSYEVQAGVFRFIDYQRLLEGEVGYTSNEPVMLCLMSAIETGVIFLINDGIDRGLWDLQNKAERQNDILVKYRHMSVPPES

[5] = target: T5, CsgG Y51A/F56Q/N91R/K94Q/R97W-del(V105-I107) pore containing the C terminal strep tag (E. coli, UniProt P0AEA2 16-277); test: pore 1; in vitro reconstitution; DNA translocation, signal:noise
T5 construct: Oligomeric CsgG pore; not shown: C-terminal Strep tag
T5 chain: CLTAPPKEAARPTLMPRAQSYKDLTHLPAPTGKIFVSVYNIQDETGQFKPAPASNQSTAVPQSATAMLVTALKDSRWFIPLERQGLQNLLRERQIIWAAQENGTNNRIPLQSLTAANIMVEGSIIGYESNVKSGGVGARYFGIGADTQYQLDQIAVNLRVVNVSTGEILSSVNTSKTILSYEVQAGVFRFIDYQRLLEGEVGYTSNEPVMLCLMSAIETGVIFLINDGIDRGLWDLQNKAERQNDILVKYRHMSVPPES

[6] = target: T6, CsgG Y51A/F56V/N91R/K94Q/R97W-del(V105-I107) pore (E. coli, UniProt P0AEA2 16-277); test: pore 6; in vitro reconstitution; DNA translocation, signal:noise
T6 chain: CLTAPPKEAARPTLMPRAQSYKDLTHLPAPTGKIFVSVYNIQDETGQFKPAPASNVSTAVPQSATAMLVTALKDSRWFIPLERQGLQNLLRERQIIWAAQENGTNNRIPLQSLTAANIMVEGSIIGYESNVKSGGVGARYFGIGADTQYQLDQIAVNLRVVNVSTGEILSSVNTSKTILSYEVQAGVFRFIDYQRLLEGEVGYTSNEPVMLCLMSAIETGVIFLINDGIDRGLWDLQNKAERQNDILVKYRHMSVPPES

[7] = target: T7, CsgG Y51S/N55A/F56Q/N91R/K94Q/R97W-del(V105-I107) pore (E. coli, UniProt P0AEA2 16-277); test: pore 7; in vitro reconstitution; DNA translocation, signal:noise
T7 chain: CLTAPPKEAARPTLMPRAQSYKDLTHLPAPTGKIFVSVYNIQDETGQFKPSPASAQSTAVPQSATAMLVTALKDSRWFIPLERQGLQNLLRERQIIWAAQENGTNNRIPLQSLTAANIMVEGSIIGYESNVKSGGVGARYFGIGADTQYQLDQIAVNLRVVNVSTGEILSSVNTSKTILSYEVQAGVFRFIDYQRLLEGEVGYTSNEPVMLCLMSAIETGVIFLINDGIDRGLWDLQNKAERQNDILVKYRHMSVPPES

[8] = target: T8, CsgG Y51A/F56Q/N91R/K94Q/R97W/R192D-del(V105-I107) pore (E. coli, UniProt P0AEA2 16-277); test: last panel; reader head discrimination from DNA translocation
T8 chain: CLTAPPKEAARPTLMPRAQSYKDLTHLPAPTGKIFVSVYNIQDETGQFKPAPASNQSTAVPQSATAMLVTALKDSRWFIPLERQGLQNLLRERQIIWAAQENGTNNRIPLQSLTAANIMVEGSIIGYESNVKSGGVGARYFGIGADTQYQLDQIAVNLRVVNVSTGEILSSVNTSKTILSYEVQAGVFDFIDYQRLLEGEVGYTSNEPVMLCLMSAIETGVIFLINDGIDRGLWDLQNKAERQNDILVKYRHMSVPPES

Measured: binding result

GTMTFQFRNPNFGGNPNNGAFLLNSAQAQNSYKDP (also called CsgF (1-35) peptide) [CsgF-(1-35) synthetic peptide]
not listed: [8]
binds: all other assays above

GTMTFQFRNPNFGGNPSNGAFLLNSAQAQNSYKDPSYNDDFGIET [CsgF-N17S-(1-45) peptide]
binds: [8]
